Test results from article PMC6382702.

System: T1, CagR (Streptomyces clavuligerus F613-1), ORF:155d736f
T1 sequence: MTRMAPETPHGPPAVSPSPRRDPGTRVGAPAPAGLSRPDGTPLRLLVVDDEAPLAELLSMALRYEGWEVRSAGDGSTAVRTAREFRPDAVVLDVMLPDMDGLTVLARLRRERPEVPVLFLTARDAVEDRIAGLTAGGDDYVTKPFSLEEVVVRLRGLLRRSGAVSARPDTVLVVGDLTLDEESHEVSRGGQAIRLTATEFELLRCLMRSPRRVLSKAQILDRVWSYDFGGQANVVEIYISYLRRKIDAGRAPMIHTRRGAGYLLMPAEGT
Test: EMSA
Details: EMSA with 3.0 ug His-CagR and polydI/dC (1.0 mg as printed); buffer, pH and temperature not given (as in Zhang et al., 2015)

## CGACGCGCTCGGTCACAGGAATCTCCTTACGATGCATGCGGTGATGGAATAAGTATGCACTCGCCCGCATGTTTCGTCAATCATGGGTGCGCGATCGGTGCGTCCGACCGAAAGTGATCGGACGCTTACGCCATGGAGCGGCGCGCTGAACGCGTCGACGGAGGAATCCCCGGGGCCGTCGGACAGCGGCAGGGGTCTTCCGCACGGCGGCGGCCCGCCGCGGCATGCCGCAGGCCCCCGGCCGAGAGGGCCGGGGGCCTGCGGGGGTGGCGGCGCCGCGCCGGAGGGCCGGTCAGGCC (double strand) [argG upstream region (P2)]
  binding: binds
